In article PMC8343073 one finds Kd data, which are given here for 1 substance.

Data set [1] relates to DdbA (Chlamydia trachomatis L2). In words: BLI. Particulars: BLI (Octet QKe, Ni-NTA sensors, His-protein immobilized): 0.1 M phosphate, 0.15 M NaCl, pH 7.2; nucleic acid 720, 240, 80 nM; temperature not stated. In general terms: BLI is a label-free optical method that tracks binding on a fibre tip over time.
Data set [2] deals with HctA (Chlamydia trachomatis L2). Briefly: BLI. Particulars: BLI (Octet QKe, Ni-NTA sensors, His-protein immobilized): 0.1 M phosphate, 0.15 M NaCl, pH 7.2; nucleic acid 720, 240, 80 nM; temperature not stated.

What is called Kd is the constant that tells how readily two partners part at equilibrium. Consider dsDNA oligo 60% GC, for which the Kd in data set [1] amounted to 7.3 nM; in data set [2], 2.3 nM.
